Tested on: internally quenched peptide probe (MCA)-Gly-Ser-Ala-Ile-Ala-Leu-Tyr-Gly-Gly-Ser-Lys (DNP)-D-Arg with CM AIALY (SEQ ID NO: 5)

human recombinant MMP9 (R&D Systems, catalog No: 911-MP), sequence (chain, as listed by the source): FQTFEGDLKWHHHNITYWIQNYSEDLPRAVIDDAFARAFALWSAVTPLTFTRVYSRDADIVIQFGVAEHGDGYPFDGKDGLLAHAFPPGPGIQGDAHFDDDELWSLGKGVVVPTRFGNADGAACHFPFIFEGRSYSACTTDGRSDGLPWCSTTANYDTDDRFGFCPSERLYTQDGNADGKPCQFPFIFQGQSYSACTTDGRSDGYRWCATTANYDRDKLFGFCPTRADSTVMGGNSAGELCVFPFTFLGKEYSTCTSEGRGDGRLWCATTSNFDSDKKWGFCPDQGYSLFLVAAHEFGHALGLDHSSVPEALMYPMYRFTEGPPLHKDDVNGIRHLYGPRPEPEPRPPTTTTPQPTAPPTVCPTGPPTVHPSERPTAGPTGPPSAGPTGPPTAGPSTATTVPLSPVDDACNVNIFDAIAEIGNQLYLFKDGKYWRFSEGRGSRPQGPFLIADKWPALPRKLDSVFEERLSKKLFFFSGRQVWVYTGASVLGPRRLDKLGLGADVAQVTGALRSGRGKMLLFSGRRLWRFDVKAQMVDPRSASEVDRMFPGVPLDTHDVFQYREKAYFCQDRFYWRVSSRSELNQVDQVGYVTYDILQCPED

Q: For “human recombinant MMP9 (R&D Systems, catalog No: 911-MP)”, which Probe Cleavage (kcat/KM) is on record?
A: 41000 M⁻¹ s⁻¹

Q: And the Probe Cleavage (pM/s)?
A: 87.7 pM/s

Source: US20260049148
